From patent US20090298079A1 (METHERESIS TRANSLATIONAL RESEARCH, published 2009)

B1: HGF NK1 (ligand)
chain: QRKRRNTIHEFKKSAKTTLIKIDPALKIKTKKVNTADQCANRCTRNKGLPFTCKAFVFDKARKQCLWFPFNSMSSGVKKEFGHEFDLYENKDYIRNCIIGKGRSYKGTVSITKSGIKCQPWSSMIPHEHSFLPSSYRGKDLQENYCRNPRGEEGGPWCFTSNPEVRYEVCDIPQEQKLISEEDLNHHHHHHH
notes: range 32-205; also called HGF-NK1 MYC his; monomeric NK1
B2: HGF-α (ligand)
chain: QRKRRNTIHEFKKSAKTTLIKIDPALKIKTKKVNTADQCANRCTRNKGLPFTCKAFVFDKARKQCLWFPFNSMSSGVKKEFGHEFDLYENKDYIRNCIIGKGRSYKGTVSITKSGIKCQPWSSMIPHEHSFLPSSYRGKDLQENYCRNPRGEEGGPWCFTSNPEVRYEVCDIPQCSEVECMTCNGESYRGLMDHTESGKICQRWDHQTPHRHKFLPERYPDKGFDDNYCRNPDGQPRPWCYTLDPHTRWEYCAIKTCADNTMNDTDVPLETTECIQGQGEGYRGTVNTIWNGIPCQRWDSQYPHEHDMTPENFKCKDLRENYCRNPDGSESPWCFTTDPNIRVGYCSQIPNCDMSHGQDCYRGNGKNYMGNLSQTRSGLTCSMWDKNMEDLHRHIFWEPDASKLNENYCRNPDDDAHGPWCYTGNPLIPWDYCPISRCEGDTEQKLISEEDLNHHHHHHH
notes: range 32-473; also called HGF α-chain; HGF-α MYC his

Experiments:
[1] = target: T1, IPT (UniProt P08581 563-932); test: ELISA, IPT in solid phase, MYC-tagged ligand in liquid phase, anti-MYC detection
T1 construct: range 563-932; also called IPT FLAG.his; soluble IPT
Experimental: (§1) Factor purification was performed by immobilized-metal affinity chromatography as previously described in Michieli P. et al. (2002) Nat Biotechnol. 20(5), 488-495. Conversion of pro-HGF into active HGF was performed by incubating purified pro-HGF (maximal concentration 100 ng/μl) with 2-10% FBS (Sigma, St. Louis, Mo.) at 37° C. for 24 hours. Factor conversion was analyzed by Western blotting using anti-HGF antibodies (R&D Systems, Minneapolis, Minn.). Uncleavable HGF subjected to the same incubation with FBS was used as pro-HGF in all assays that compared active HGF with unprocessed HGF. Binding of engineered ligands to soluble receptors was measured by ELISA using FLAG-tagged soluble receptors in solid phase and MYC-tagged engineered ligands in liquid phase. […] Binding data were analyzed and fit using Prism software (Graph Pad Software, San Diego, Calif.).
(§2) To determine the affinity of each Met module for pro-HGF, HGF-α, HGF NK1 and HGF-β and to compare it with that for active HGF, engineered receptors were immobilized in solid phase and exposed to increasing concentrations of MYC-tagged ligands. […] Non-specific binding was determined using the kringle-containing protein angiostatin (AS) also tagged with a MYC epitope—in liquid phase. […] Binding of HGF-β to decoy Met (or to any other Met domain) was too low to be detected in this kind of assay. […]

[2] = target: T2, Sema-PSI (UniProt P08581 25-562); test: ELISA, receptor in solid phase, MYC-tagged ligand in liquid phase, anti-MYC detection
T2 construct: range 25-562; also called Sema-PSI FLAG.his; SP
Experimental: as §1, with “All engineered receptors and factors were collected from the conditioned medium of lentiviral vector-transduced […] human melanoma cells in the absence of serum. Factor purification” for “Factor purification”, “Minneapolis, Minn.). […] Binding of” for “Minneapolis, Minn.). Uncleavable HGF subjected to the same incubation with FBS was used as pro-HGF in all assays that compared active HGF with unprocessed HGF. Binding of”
as §2

[3] = target: T3, Decoy Met (UniProt P08581 25-932); test: ELISA, Decoy Met in solid phase, MYC-tagged ligand in liquid phase, anti-MYC detection
T3 construct: range 25-932; Soluble FLAG- and His-tagged receptor, purified from conditioned medium of transduced cells; also called decoy met FLAG.his; DM
Experimental: as §1, §2

Row | Binder | fold less tightly than active HGF [1] [fold] | binding result [2] | fold reduced affinity compared to active HGF [3] [fold]
1 | B1 | 10 | no binding | 10
2 | B2 | – | no binding | 4
